Test results as given in patent publication US20130216549A1 (NOVLMMUNE S A, published 2013).

What was measured:
[1] = target: T1, NusA-rat IP-10 fusion protein (rat, UniProt P48973 22-98); assay: capture ELISA: NI-0801 coated, NusA fusion protein titrated, detected with anti-NusA antibody, fluorescence
T1 chain: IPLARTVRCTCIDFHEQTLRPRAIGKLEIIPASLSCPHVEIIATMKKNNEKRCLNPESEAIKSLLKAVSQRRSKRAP
Description: (§1) Briefly, IP-10 cloned from cDNA isolated from mouse, rat, rabbit and cynomolgus as well as a panel of human chemokines was expressed and purified as described in Example 1.

[2] = target: T2, NusA-cynomolgus IP-10 fusion protein (cynomolgus, UniProt Q8MIZ1 22-98 (rhesus entry)); assay: capture ELISA: NI-0801 coated, NusA fusion protein titrated (CK Conc [M]), detected with anti-NusA antibody, fluorescence
T2 construct: junction and C-terminal AviTag not spelled out
T2 sequence: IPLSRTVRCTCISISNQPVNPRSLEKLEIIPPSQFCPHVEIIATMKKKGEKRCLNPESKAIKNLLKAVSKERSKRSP
Description: as §1

[3] = target: T3, recombinant human IP-10 (Peprotech) (human, UniProt P02778 22-98); assay: cell-based or functional assay
T3 sequence: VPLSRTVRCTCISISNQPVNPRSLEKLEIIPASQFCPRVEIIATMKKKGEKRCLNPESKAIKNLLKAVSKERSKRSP

Row | Binder | binding result [1] | EC50 (read off the curve) [2] [nM] | Calcium flux IC50 (nM); 10 nM hIP-10 [3] [nM] | Chemotaxis IC50 (nM); 1 nM hIP-10 [3] [nM]
1 | NI-0801 (IgG1-formatted) (antibody, V domains shown) VH: QVQLVESGGGVVQPGRSLRLSCAASGFTFSNSGIHWVRQAPGKGLEWVAVISYDGSNKYYADSVKGRFTISRDNSKNTLYLQMNSLRAEDTAVYYCARLRDNAEYTDYWGQGTLVTVSS VL: NFMLTQPHSVSESPGKTVTISCTGSGGSIASNYVQWYQQRPGSSPTTVIYEDNQRPSGVPDRFSGSIDSSSNSASLTISGLKTEDEADYYCQSYDPLPVWVFGGGTKLTVLG | no binding (tested: about 2.5e-7 M) | ~1 |  | 
2 | CC21R3P1_A2 (scFv format) (scFv, V domains shown) VH: QLVESGGGLIQPGGSLRLSCAASGFSVSDTYMNWVRQAPGKGLEWVSSIYSDDSTYYADSVKGRFTISRDNSKNTLFLQINSLRAEDTAVYYCARDKEYVTSTGGAYYYFYYMDVWGQGTLVTVSS VL: not shown |  |  | 36 | 7
